Experiment: soluble on expression in E. coli; label from the status in PepcDB or PDB records

| Sequence | soluble on expression in E. coli |
| --- | --- |
| MGSDKIHHHHHHMSTPTRIITSKDIETGKHISPAQRLRIMNADEWEEFIEEWTDSLKKEYFKVERLGGAGDKGRDIVAQLENAEIWDNYQCKHYGHSLRPSDIWTEIGKLVYYTAIGDFTCPRKYFFIAPLGVGTSLSDLLKNPRKLVQGLRENWDKYCKDKITQNCLIKLSDMEPQLEKIDFSIFGYVTPLTIIEQHRKTPHFITRFGGGLPKREIPPEPPIKSTSEESEYLKKILQAYSDFNKQDISTIDDVTDIDLTEHYKDSRIQFYSAEALKRFSRDALPENEFKLLQQEFLNGIKDEIRNPVHANGYLRLLEVVKVARALQITSHALIDCLMVNDRGGICHQLANDNESIAWAKNG | not soluble |
| SVEVITHPGVNSNYLSKNLLRSIFGMRLRTWQDGLPVRVFVLPDDAPLHSTFTKQKLNIFPYQLRSAWDRMVYSGTGQAPFVVHTEEEMRARIASTPGAIGYLSGSMINDSVQVVHID | not soluble |
| MSLRIFLCGCVHGSWEVVVNEVNKLVAKGTKIDLIIVAGDTESFRSKSDLESYNYQRQNHDLGTFHKLVSGELKLPCKMLMIGGNNEVGDMIFQLPFGGWVTPDIFFAGINSQIYFGDLLITCQSGIMNGQDYHKCISEKFPVRGCDTHLILHIREVSIFQLYGLKNVPLFVSHEWPSGIPKQYRNIPRMQFYAKSDDKNDFGCPGFVKLLNKHRPKKWYAAHLHVRFDCTLKNGTKFTGVPKVIDKRYKWYELEEYNCNPAGGFKFSGEWINIVKNTERFVKNPKLLQNLDWDEEWRKIYETMNTEDFPEKVDVMEYNDDYQIQTKKFCDSYQIYNPYKEGHHHHHH | soluble |
| MAEDEIVVEEEQSQPQEITPVPPSSSSSPSLVVEDDDEMKLKHLEFIQVAAVYFAACFSTLYELAKDNAGPLKLGVENIEDCVRTVLAPLYEKFHDVPFKLLLFVDRKVDDVFFDVETYVPSLVKQASSQALTVATEVQRTGVVDTTKSIARSVRDKYEPAAEYYAATLWRLLNQLPLFPEVAHLVIPTAFYWSEKYNDAVRYVGDRDYFGAEYLPMIPIEKISDILEQDQCRAD | not soluble |
| MGRTSKDKRDVYYRLAKENGWRARSAFKLLQLDKEFQLFQGVTRAVDLCAAPGSWSQVLSQKIGGQGSGHVVAVDLQAMAPLPGVVQIQGDITQLSTAKEIIQHFKGCPADLVVCDGAPDVTGLHDVDEYMQAQLLLAALNIATHVLKPGGCFVAKIFRGRDVTLLYSQLQVFFSSVLCAKPRSSRNSSIEAFAVCQGYDPPEGFIPDLSKPLLDHSYDPDFNQLDGPTRIIVPFVTCGDLSSYDSDRSYPLDLEGGSEYKYTPPTQPPISPPYQEACTLKRKGQLAKEIRPQDCPISRVDTFPQPLAAPQCHTLLAPEMEDNEMSCSP | soluble |
| MGSDKIHHHHHHMKEGKANILIIDDISSNIFALENLLMTENRTFFKATSGDEGLKLALSKPVDLIILDVQMPEMDGFEVANMLKSNKRTKDIPILFASAELKEQKNMLKGLEEGAIDYLFKPLDPEITKAKVNMLIRLELQRKEMVEINSALEKSAILINNCLDIICTIDAETFKFEAFNVAMTNVLGYSSEEITSQSLLFFLQESDREFIKNLKKSDSNTGSFEIQIICKDSSIKWLQWNIVVKGGKWFSNARDITERKKKDDEIIRLNQDLHENIQQLENANKELESFSYSVSHDLRAPLRSINNYAQMLEDAFAAQMDEKSTRLLGNIKRNAFRMDTLIDDLLAFSRLGRKPVQKQSINMNDLVQHVYADMQGTFKGEFVLPALPDIDADYNLLKQVVVNLLSNAIKYSGKIEEPRIEVGYTKNPNAVVYYIKDNGAGFDMEYSDKLFGVFQRLHSTKEFEGTGVGLAIVKRIVEKHGGTIWAEAKVGEGATFYFSLPAPV | not soluble |
| ALSGGFIKGFAHLGVMQALLEHDIKPDIISGVSAGALAGVFYADGNEPHQVIEYFSGHKFQDLTKLVIPKKGLFDLCEFIDFLHTNLKAKNLEELQIPLIITATDLDHGRMVHFHRGSIAERVAASCCMPVMFAPVNIDGTNYVDGGLMMNLPVSTLRRICDKVVAVNVSPIMAQDYKMNIVSIAMRSFHFMFRANTFPEREKCDLLIEPYNLYGYSNTELEKAEEIFEQGYKIAND | not soluble |
| MYQLTVFYDGTCPLCAKEMRALKQQDKNNVIKTIDIYSEVFSEYSNIDPKAANTVLHALNQKGELILGLDVTYLAWKLVGKGWLYAPLRWPGIKVIADWCYLHFAKNRYRVSYWLTGVSRCNKTSCSKLEHHHHHH | not soluble |

— the DeepSol protein solubility set
